Results published in PMC9975281, “Enolpyruvate transferase MurAA^A149E, identified during adaptation of Enterococcus faecium to daptomycin, increases stability of MurAA–MurG interaction” (The Journal of Biological Chemistry, 2023).

Tests used:
MurAA^A149E = molecular target: T1, MurAA^A149E (Enterococcus faecium, UniProt A0A133CTP6, A149E); test: microscale thermophoresis in the presence of UDP-GlcNAc; format: binding
T1 construct: gene murA; full-length

MurAA [1] = molecular target: T2, MurAA (Enterococcus faecium, UniProt A0A133CTP6); test: ([…] Å); MST in the presence of UDP-GlcNAc; format: binding
T2 construct: gene murA; full-length

[2] = molecular target: Enterococcus faecium MurG (Enterococcus faecium) (UniProt Q3Y2H8); test: MST; 50 nM His-MurG labelled with RED-tris-NTA, serial dilution of MurAA^WT (402 uM to 12.3 nM) or MurAA^A149E (69.9 uM to 2.13 nM); 20 mM Hepes pH 7.5, 150 mM NaCl, 0.05% Tween; Monolith NT.115; triplicate
C=C(OP(=O)(O)O)C(=O)O [3] = test: steady-state kinetics (Km), EnzChek phosphate assay; format: biochemical, Enterococcus faecium
MurAA [4] = molecular target: T2, MurAA; test: X-ray crystal structure ([…] Å), co-purified ligand, weak/partial density; format: binding
C=C(OP(=O)(O)O)C(=O)O [5] = test: purified protein; conditions: covalently bound within the active site at Cys119

C[C@@H]1O[C@@H]1P(=O)(O)O [FOS, fosfomycin]
Kd (MurAA^A149E): 470 ± 60 nM | Kd (MurAA [1]): 1870 ± 670 nM

Enterococcus faecium MurAA^A149E (enzyme)
Kd [2]: 1720 nM

MurAA^A149E (Enterococcus faecium; A149E)
Km (C=C(OP(=O)(O)O)C(=O)O [3]): 7.26 ± 1.05 µM | kcat (C=C(OP(=O)(O)O)C(=O)O [3]): 1.04 ± 0.04 s⁻¹

Enterococcus faecium MurAA, wildtype (UDP-N-acetylglucosamine enolpyruvate transferase) (enzyme)
Kd [2]: 27700 nM

CC(=O)N[C@H]1[C@@H](OP(=O)(O)OP(=O)(O)OC[C@H]2O[C@@H](n3ccc(=O)[nH]c3=O)[C@H](O)[C@@H]2O)O[C@H](CO)[C@@H](O)[C@@H]1O[C@H](C)C(=O)O [UDP-MurNAc]
X-ray crystal structure (2.65 Å), co-purified ligand, weak/partial density (MurAA [4]): Cys119-PEP adduct and UDP–MurNAc at the interface of two domains in E. faecium MurAA

MurAA (Enterococcus faecium)
Km (C=C(OP(=O)(O)O)C(=O)O [5]): 6.35 ± 0.88 µM | kcat (C=C(OP(=O)(O)O)C(=O)O [5]): 1.81 ± 0.06 s⁻¹
